The supplement of paper PMC10567573

B1: SMG5 (parent)
chain: TRKLSPGKKRCKDIKRLLVNFMYL
B2: HDAC6 (parent)
chain: ACAQLATGAACRLVEAVLSGEVLN

Variants of: B1
Assay: protein stability index of a GFP-peptide fusion (GPS, HEK-293T) (PSI 1-6); higher = more stable
Details: c terminus: a fixed tail appended
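Note: lentivirally expressed fusions sorted by FACS into six bins by GFP to DsRed ratio, PSI derived from sequencing read proportions per bin multiplied by bin number.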

Protein stability index, by site and new letter:
L24: E 1.96 | P 2.63 | K 2.46 | H 1.55 | R 2.39 | Q 2.04 | F 2.53 | S 1.98 | M 3 | C 1.39 | G 2.92 | Y 2.08 | I 4.07 | A 2.34 | W 1.9 | D 1.2 | T 2.02
K9: D 3.59 | E 2.32 | V 2.04 | M 2.31 | C 2.14 | Y 2.15 | F 3 | N 4.29 | P 2.4 | L 3.19 | S 2.86 | T 2.64 | G 1.4
K8: N 1.74 | T 2.64 | W 2.79 | S 1.98 | R 2.2
M22: C 1.75 | E 2.45 | V 2.33 | H 1.65 | P 2.39 | T 2.11 | Y 2.96 | S 1.39 | F 2.29 | G 2.04 | K 1.86 | N 1.95 | D 2.34 | Q 1.34 | R 2.4
N20: I 3.42 | E 3.09 | W 1.09 | K 2.12 | H 3.2 | F 4.01 | P 3.07 | Q 3.52 | Y 2.56 | S 3.78 | V 2.79 | D 3.56
L18: G 2.35 | S 1.88 | F 2.21 | V 2.52 | Q 1.95 | C 1.52 | Y 2.5 | H 1.6 | A 1.41 | M 3.27 | D 1.76 | E 2.16 | N 1.55 | P 2.48 | R 1.68 | T 1.65 | K 1.54
V19: P 2.62 | T 1.84 | I 1.66 | H 2.72 | S 2.12 | M 2.59 | Q 2.26 | C 2.31 | Y 4.05 | N 2.21 | E 1.68 | D 2.34 | L 3.43 | G 2.1
I14: W 2.49 | E 1.32 | P 3.95 | M 2.34 | C 3.55 | D 1.56 | R 2.19 | V 2.2 | Q 1.5 | K 1.19 | N 1.45 | S 2.53 | G 1.18 | L 2.27 | A 2.13 | H 2.23 | T 2.05 | F 2.36
F21: W 1.91 | K 2.12 | P 1.6 | D 2.37 | A 1.76 | S 2.88 | E 1.75 | G 1.63 | Y 1.76 | H 1.49 | Q 1.71 | I 3.19 | N 1.97 | R 1.88 | C 1.21 | T 1.99
K15: G 1.85 | W 2.09 | E 3.46 | Q 1.64 | N 3.35 | D 1.3 | A 3.83 | L 2.08 | P 2.23 | V 4.58 | T 3.37 | M 2.66
R16: P 2.24 | N 2.58 | I 3.39 | A 2.73 | Q 1.27 | S 1.36 | D 1.6 | G 1.71 | K 2.01 | W 3.81 | C 2.27 | L 1.66 | T 2.9 | E 2.42 | M 4.38
C11: Y 1.91 | G 1.42 | M 1.93 | E 2.58 | I 4.05 | A 3.02 | F 3.81 | L 2.46 | W 3.27 | H 1.58 | D 1.79 | P 2.26 | Q 1.39 | T 1.59 | K 2 | S 1.4 | V 1.4
K12: A 3.77 | M 1.74 | Q 2.46 | R 2.47 | V 2.02 | G 2.95 | P 2.41 | L 3.13 | C 3.37 | D 1.41 | W 3.15 | T 2.96 | S 2.06 | N 2.14 | E 4.79 | F 2.73 | Y 2.96
Y23: S 3.81 | D 2.01 | T 2.18 | R 2.05 | F 1.64 | I 3.31 | V 4.04 | W 2.16 | H 2.35 | P 1.81 | A 2.85 | M 2.94 | K 2.93
R10: P 3.4 | S 2.03 | H 2.2 | Y 3.14 | E 2.67 | L 3.06 | K 2.07 | G 3.25 | Q 3 | N 3.09 | D 2.02 | C 2.23
D13: S 2.42 | Q 3.52 | C 1.84 | L 2.93 | V 3.74 | A 2.75 | P 2.62 | R 1.71 | K 2.07 | Y 1.79 | N 1.5 | I 3.25 | T 3.66 | M 2.54
L17: S 2.56 | H 1.3 | E 1.55 | A 1.77 | V 1 | T 1.9 | F 3.34 | P 1.5 | M 2.12 | Q 1.5 | D 2.24 | K 2.64 | Y 2.65 | G 3.06 | R 1.84

Variants of: B2
Assay: as above
Details: c terminus: a fixed tail appended

Protein stability index: each site, then its substitutions
Q4: E 2.92 | P 1.04 | A 2.68 | I 1.55 | Y 4.38 | K 2.69
R12: Q 1.97 | A 2.3 | S 1.65 | N 2.52 | G 1.26 | P 2.66 | Y 3.46 | T 2.92 | D 1.48 | M 3.3
A3: F 3.94 | N 1.68 | W 2.17 | D 2.88 | S 4.04
A6: D 2.11 | I 3.57 | Q 2.74 | N 1.48 | K 1.19 | H 1 | T 1.39 | E 2.35 | G 2.25 | C 2.49
A1: T 4.34 | G 1 | E 3.75 | K 1.92 | C 1.16 | S 3.19 | P 1.53
C11: E 1.04 | R 1.78 | K 2.29 | A 2.9 | P 2.27
T7: M 3.57 | N 1.54 | S 2.78 | D 1.79
G8: M 1.28 | T 3.69 | D 2.67 | C 2.74 | S 1.94
A9: I 3.52 | G 1.69 | R 3 | P 2.4 | D 2.61 | E 3.49 | W 2.99 | N 1.09 | K 2.23 | Y 1.68
A10: Y 1.49 | D 2.22 | Q 1.71 | K 2.38 | P 2 | R 1.7 | C 2.16 | E 1.82 | G 1.43 | I 2.01
C2: P 1.82 | Q 2.97 | N 1.21 | E 2 | S 1.08 | K 1.99 | L 3.12 | T 3.63 | D 2.98
L5: V 1.16 | T 1.37 | D 2.61 | I 1.51 | Q 2.67 | P 2.2 | M 2.68 | N 1.81 | G 2.42 | H 1.42 | E 2.48
